From PMC11379722

What was measured:
[1] = target: S protein of the SARS-CoV-2 Omicron (B.1.1.529) strain, his-tagged (SARS-CoV-2, Omicron (B.1.1.529) strain) (UniProt P0DTC2); test: BLI
[2] = target: RBD of the SARS-CoV-2 Delta (B.1.617.2) strain (SARS-CoV-2, Delta (B.1.617.2) strain) (UniProt P0DTC2); test: ELISA

Substance | fold increase in binding affinity (BLI) against wild-type CR3022 [1] | EC50 [2] | fold lower ELISA EC50 than wild-type CR3022 [2]
CR3022 SH100D+SH103Y+IL34W triple mutant (IgG1 format) (antibody) | 6.1 fold |  | 
CR3022 SH100D+SH103Y+SL33R triple mutant (IgG1 format) (antibody) | 4.1 fold | 0.06 nM | 3.4 fold
